The values below come from US20200171068A1, “COMPOSITIONS COMPRISING APTAMERS AND NUCLEIC ACID PAYLOADS AND METHODS OF USING THE SAME” (Children's National Medical Center, priority 2017, published 2020).

Entries after “also recorded” stand apart in the source; their conditions may differ.

The test system of the data set is MDA-MB-231 cell line. The experiment in a line: Aptamer binding assay to MDA-MB-231 cells by flow cytometry. On the set-up: species or system human. The following applies: biotin-conjugated aptamer. The method, then: DNA sequences for anti-human KIT aptamer (21) and mouse c-Kit aptamers (22) conjugated with biotin at 3′ were functionalized by short denaturation-renaturation step (95° C. 10 min, 5 min snap-cooling on ice). These DNA sequences were 5′-[…] […]-3′ (SEQ ID NO: 2) for human KIT, 5′-[…]-3′ (SEQ ID NO:3) for mouse c-Kit. These activated aptamers were used for binding assay to the cell lines by flow cytometry. For chimera preparation, human KIT-aptamer or mouse c-Kit-aptamer miR-26a chimera was assembled by three compartments of DNA/RNA hybrid sequences. The sequences were 5′-[…] […]/C3 (SEQ ID NO:4) spacer/CCUAUUCUGG-3′(SEQ ID NO:5) for human KIT aptamer+the part of passenger sequence for miR-26a-5p, 5′-[…]/C3 (SEQ ID NO:6) spacer/CCUAUUCUGG-3′ (SEQ ID NO:7) for mouse cKit aptamer+the part of passenger sequence for miR-26a-5p, 5′-GUUACUUGCACG/TEG (triethylene glycol)-Cholesterol-3′ (SEQ ID NO:8) for the part of sequence for miR-26a-5p+cholesterol, and 5′-[…]-3′ (SEQ ID NO:9) for guide sequence for miR-26a-5p (RNA sequences were represented as italic). The guide sequence for scramble control was […] (SEQ ID NO:10). To protect the oligonucleotide sequences from nuclease degradation, phosphorothioate bonds were introduced between the last 3 nucleotides at the 5′-end of DNA aptamers. The RNA sequences were modified with 2′-fluoro-uridines. […]
On the technique in general: A flow cytometer gives signals particle by particle.

B1: human KIT aptamer: DNA aptamer against human KIT, SEQ ID NO:2, conjugated with biotin at 3′ for binding assay (nucleic acid)
DNA: GAGGCATACCAGCTTATTCAAGGGGCCGGGGCAAGGGGGGGGTACCGTGGTAGGACATAGTAAGTGCAATCTGCGAA
modifications: DNA, 3' {Biotin}, backbone not given here; further chemistry not fully specified
Consider B1, for which the “binding to MDA-MB-231 cell line” value is listed as “confirmed the binding; also recorded: nearly identical distribution of KIT expression”.
